Earlier results in paper PMC7689933.

Target: His15 (UniProt position 33, AAMKRHGLDNY)
Assay: NMR
Details: not stated (presumably native, ligand-free lysozyme)

For “Lysozyme C (hen egg white lysozyme) (Gallus gallus)”, the pKa is given as 5.35 ± 0.07.
